The record followed here is the DeepSol protein solubility set.

The nature of this series: soluble on expression in E. coli; label from the status in PepcDB or PDB records.
“MSLQENPYQLVKDVEGIGFGKADELGSRMGLSGNHPERVKAAILYTLETTCLSEGHTYIETEQLIIDTQSLLNQSAREGQRITEMDAANAIIALGENKDIVIEDGRCYFPSLFYAEQNVAKRVKHIASQTEYENQFPESEFLLALGELEERMDVQYAPSQKEAIQKALSSPMLLLTGGPGTGKTTVIRGIVELYGELHGVSLDPSAYKKDEAFPIVLAAPTGRAAKRMSESTGLPAVTIHRLLGWNGAEGFTHTEDQPIEGKLLIIDEASMLDIWLANHLFKAIPDHIQIIIVGDEDQLPSVGPGQVLRDLLASQVIPTVRLTDIYRQAEGSSIVELAHQMKNGLLPNNLTAPTKDRSFIRCGGSQIKEVVEKVVANALKKGYTAKDIQVLAPMYRGKAGINELNVMLQDILNPPKEKRRELKFGDVVYRTGDKILQLVNQPENNVFNGDIGEITSIFYAKENTEKEDMAVVSFDGNEMTFTKKDFNQFTHAYCCSIHKSQGSEFPIVVLPVVKGYYRMLRRNLLYTAITRAKKFLILCGEEEALEWGVKNNDATVRQTSLKNRLSVQVEEGHHHHHH”: the “soluble on expression in E. coli” value is listed as “soluble”.
With “MGSDKIHHHHHHAADPVVVPANMEPLTIEGNRFVTLCIMIRTTPWEVSRDVKLHPRDEVDWHTLEGVRALREAFATNNPNGRLTWGFTMNALEDGRKNYREIRDYVVECQKKYGDEVTYFPGYFPAMYLPRERVNREMSEAIEIISKMVGNGYRPQSIMGGFLSADNLRYLAEKENIHVAHAVIWSQHNIDGGGADGSPSYPFYPSTEHFCKPAQGKSDFIDCVNLDGWTMDFICARRSGQTGHGIDGYNSRRGVGPIETYKGWGLDLGHREVMHTEAIHFDKGLELNGFGWVANIWEAQMVHEFGKDLICDAMKMWVTGTKERWPDTHFVTFGEFGELWRKQYKSNDDWNYRFVERGSGLGDSYNNLEIKWFMNKEFRLALLRDWHTKNSPAYVIDFTRYDLQAHEPADPSPEKPAKDWSLINKINQKALRPQDKPVLIDKLEKEDQDLIRKYYPELLK”, the “soluble on expression in E. coli” value was “not soluble”.
On to “MERKISRIHLVSEPSITHFLQVSWEKTLESGFVITLTDGHSAWTGTVSESEISQEADDMEMEKGKYVGELRKALLSGAGPADVYTFNFSKESCYFFFEKNLKDVSFRLGSFNLEKVENPAEVIRELICYCLDTTAENQAKNEHLQKENERLLRDWNDVQGRFEKCVSAKEALETDLYKRFILVLNEKKTKIRSLHNKLLNAAQ”, for which the “soluble on expression in E. coli” value is on record as “soluble”.
As for “MSLSWRNRIQIFLAPDRVDLTGIARGIRPVQQFRQSGVCVQENDSRQQWKAPLRLLEQMIGQMDDRFRRGSELHITLSNHFVRYGVIAPQPSLANPDELMAYAGFQMREIYGERIDDWELSLSTWDPYGGALCAAIARDLQSELIMFARQYDTRFACIEPYLAAALDHWSKRLVEKQVWFVLVETGRFCLVVLSEGAWRCARNQRVVENLQEELLAALEQESIILSPDRSVERVYVFAPELTGQLPVHDLRWQFVRLPDEKHPAPSYFPGVTGMDDSQNH”, the “soluble on expression in E. coli” value was “not soluble”.
In the case of “MSLKPVKPPRINGRVPVLSAQEAVNYIPDEATLCVLGAGGGILEATTLITALADKYKQTQTPRNLSIISPTGLGDRADRGISPLAQEGLVKWALCGHWGQSPRISELAEQNKIIAYNYPQGVLTQTLRAAAAHQPGIISDIGIGTFVDPRQQGGKLNEVTKEDLIKLVEFDNKEYLYYKAIAPDIAFIRATTCDSEGYATFEDEVMYLDALVIAQAVHNNGGIVMMQVQKMVKKATLHPKSVRIPGYLVDIVVVDPDQTQLYGGAPVNRFISGDFTLDDSTKLSLPLNQRKLVARRALFEMRKGAVGNVGVGIADGIGLVAREEGCADDFILTVETGPIGGITSQGIAFGANVNTRAILDMTSQFDFYHGGGLDVCYLSFAEVDQHGNVGVHKFNGKIMGTGGFIDISATSKKIIFCGTLTAGSLKTEITDGKLNIVQEGRVKKFIRELPEITFSGKIALERGLDVRYITERAVFTLKEDGLHLIEIAPGVDLQKDILDKMDFTPVISPELKLMDERLFIDAAMGFVLPEAAHEGGSHHHHHH”, the “soluble on expression in E. coli” value was “soluble”.
Turning to “MKISLVTVTFNSAKTLCDTIHSVLSQSYTNIEYIIVDGLSNDETVTLIKEYEPLFQGRLKWISEKDKGLYDAMNKGIRMSTGDIVGIINSDDFYHRGDVLEKVAESFEAGETEAIYGDVRFVNPDNLDRTVRYYSSKRFVPSLFRFGFMPAHPTFFTYRKYFDQFGYYKTNYKIAADYELLVRFLYVHRLKSKYLPLDFMKMRTGGASTASIKSNILLNKEIVRACKENGIWTCYPLLLLKYLVKVFELIFIKKLEHHHHHH”, the “soluble on expression in E. coli” value was “soluble”.
